Data as given in patent publication EP4803151A2 (Lepu Biopharma Co., Ltd., dated 2026).

B1: 310P3C5-hIgG1 chimeric antibody (antibody, V domains shown)
VH: EVQLQQSGPELVKPGASVKISCKASGYTFTDFYMNWVKQTHGKSLEWIGDANPNNGGTTHNPRFKGQATLTVDKSSNTAYMELRSLTSEDSAVYYCARGGLPGDFDYWGQGTTLTVSS
VL: DIQMTQSSSSFSVSLGDRVTITCKASEDIYNRLAWYQQKPGNAPRLLISGVTSLETGVPSRFSGSGSGKDYTLSITSLQTEDVATYYCQQYWSFPWTFGGGTKLEIKR
B2: 148C3A7-hIgG1 chimeric antibody (antibody, V domains shown)
VH: EVQLQQSGPELIKPGTSVKMSCKASGYTFTTYLMHWVKQKPGQGLEWIGYINPYNDVTEYHEKFKDKATLTSDKSSSTAYMELSSLTSEDSAVYYCARLGGYGPGWYLDVWGAGTTVTVSS
VL: DIQMTQSPASLSASVGETVTITCRASGSIHNYLAWYLHKQGKSPQLLVYNAKTLADGVPSRFSGSGSGTQYSLKINSLQPEDFGSYYCHHFWSTPWTFGGGTKLEIKR
B3: 362H3D3-hIgG1 chimeric antibody (antibody, V domains shown)
VH: EVQLQQSGPELLKPGASVKISCKASGYTFTDYTMHWVKQSHGRSLEWIGGIHPNYGGTSYNEKFKDKATLTVDKSSSTAYMEFRSLTSEDSAVYYCARWGYYGGSYWYFDVWGTGTTVTVSS
VL: DIQMTQSPASLSVSVGETVTITCRASENIYSNLAWYQQKQGKSPQLLVYAATNLADGVPSRFSGSGSGTQYSLKINSLQSEDFGSYYCQHFWGTPYTFGGGTKLEIKR
B4: 36B7F3-hIgG1 chimeric antibody (antibody, V domains shown)
VH: QVQLQQSGPELVKPGASVKISCRASGYTFTDHHLNWVKQRPGQGLEWIGWIFPGSGSDYYNERFKDKATLTVDKSSSTAYMLLSSLTSEDSAVYFCERWDYWGQGTTLTVSS
VL: QIVLTQSPTIMSASPGEKVTMTCSASSSISYMHWYQQKPGTSPKRWIYDTSTLASGVPARFSGGGSGTSYSLTISSMEAEDAATYYCHQRSSYPLTFGAGTKLELKR
B5: 9E8D8-hIgG1 chimeric antibody (antibody, V domains shown)
VH: QVQLQQSGAELVRPGASVKLSCKALGYTFTDSEIHWVKQTPVHGLEWIGAIHPRNGGTAYNQKFRGKATLSADRSSNTAYMELSSLTSEDSAVYYCSRGYFLDYWGQGTSVTVSS
VL: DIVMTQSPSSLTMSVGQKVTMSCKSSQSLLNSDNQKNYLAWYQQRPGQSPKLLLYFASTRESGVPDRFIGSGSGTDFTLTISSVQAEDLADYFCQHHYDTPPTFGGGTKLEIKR

Each binder was assayed against T1, human DLL1 his tag fusion protein (Sino Biological, Cat. No. 11635-H08H) (human, UniProt O00548 18-540) (assay: ELISA, hDLL1-his coated at 1 ug/mL).
T1 construct: Bought protein; also called hDLL1-his; hDLL1 protein; not shown: his tag
T1 sequence (looked up): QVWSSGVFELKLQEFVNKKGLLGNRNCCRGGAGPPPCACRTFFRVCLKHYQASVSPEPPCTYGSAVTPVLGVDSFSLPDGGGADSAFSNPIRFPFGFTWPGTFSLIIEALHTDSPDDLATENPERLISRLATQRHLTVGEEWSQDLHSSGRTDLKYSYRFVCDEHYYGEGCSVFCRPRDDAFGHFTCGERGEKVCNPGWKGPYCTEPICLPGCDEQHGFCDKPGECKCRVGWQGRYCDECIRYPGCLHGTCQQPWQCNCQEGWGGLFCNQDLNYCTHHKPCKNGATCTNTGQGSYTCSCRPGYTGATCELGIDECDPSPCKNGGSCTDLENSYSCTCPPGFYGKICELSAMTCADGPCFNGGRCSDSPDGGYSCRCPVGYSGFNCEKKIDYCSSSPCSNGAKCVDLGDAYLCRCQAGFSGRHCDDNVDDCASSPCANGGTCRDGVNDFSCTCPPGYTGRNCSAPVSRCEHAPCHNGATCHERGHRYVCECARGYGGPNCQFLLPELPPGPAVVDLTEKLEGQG
B1: no binding (tested: up to 100 nM). B2: no binding (tested: up to 100 nM). B3: binds. B4: no binding (tested: up to 100 nM). B5: no binding (tested: up to 100 nM).

What follows are binders tested against T2, ECD of human DLL3 protein fused with his tag (Acro Bio, Cat. No. DL3-H52H4) (human, UniProt Q9NYJ7 27-492) (assay: ELISA, hDLL3-his coated at 1 ug/mL).
T2 construct: range 27-492; Bought protein; also called hDLL3-his; human DLL3-his protein; not shown: his tag
T2 sequence (looked up): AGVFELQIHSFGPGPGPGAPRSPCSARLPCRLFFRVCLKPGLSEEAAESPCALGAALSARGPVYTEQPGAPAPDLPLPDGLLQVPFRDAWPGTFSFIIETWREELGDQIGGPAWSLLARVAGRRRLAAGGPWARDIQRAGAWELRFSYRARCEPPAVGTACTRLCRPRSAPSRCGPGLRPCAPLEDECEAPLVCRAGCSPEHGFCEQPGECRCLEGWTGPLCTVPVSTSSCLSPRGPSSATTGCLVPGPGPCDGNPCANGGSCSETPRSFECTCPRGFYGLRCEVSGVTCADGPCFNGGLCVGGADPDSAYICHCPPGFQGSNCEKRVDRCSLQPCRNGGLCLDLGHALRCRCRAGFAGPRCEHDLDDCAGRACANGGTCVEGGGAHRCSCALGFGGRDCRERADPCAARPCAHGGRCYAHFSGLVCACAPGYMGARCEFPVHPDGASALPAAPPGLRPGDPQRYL
B4: binds. B5: binds.

What follows are binders tested against T3, human DLL4 his tag fusion protein (Sino Biological, Cat. No. 10171-H08H) (human, UniProt Q9NR61 27-524) (assay: ELISA, hDLL4-his coated at 1 ug/mL).
T3 construct: Bought protein; also called hDLL4-his; hDLL4 protein; not shown: his tag
T3 sequence (Q9NR61 27-524 limits assumed): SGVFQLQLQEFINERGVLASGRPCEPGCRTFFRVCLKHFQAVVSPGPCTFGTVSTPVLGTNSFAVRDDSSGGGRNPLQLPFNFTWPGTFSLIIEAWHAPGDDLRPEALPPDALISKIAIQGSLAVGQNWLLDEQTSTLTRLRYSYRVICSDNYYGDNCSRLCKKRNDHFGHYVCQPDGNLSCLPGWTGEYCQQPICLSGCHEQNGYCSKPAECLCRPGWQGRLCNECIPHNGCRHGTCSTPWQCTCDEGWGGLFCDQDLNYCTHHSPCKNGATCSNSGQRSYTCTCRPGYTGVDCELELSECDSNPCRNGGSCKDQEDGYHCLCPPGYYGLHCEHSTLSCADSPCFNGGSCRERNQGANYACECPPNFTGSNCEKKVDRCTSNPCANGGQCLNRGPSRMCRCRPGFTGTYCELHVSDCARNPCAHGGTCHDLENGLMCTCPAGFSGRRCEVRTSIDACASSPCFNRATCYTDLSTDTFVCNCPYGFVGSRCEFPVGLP
B1: no binding (tested: up to 100 nM). B2: no binding (tested: up to 100 nM). B3: binds. B4: no binding (tested: up to 100 nM). B5: no binding (tested: up to 100 nM).

Each binder was assayed against T4, mouse DLL3 his tag protein (KACTUS, Cat. No. DLL-MM103) (mouse, UniProt O88516 33-490, limits assumed) (assay: ELISA, mDLL3-his coated at 1 ug/mL).
T4 construct: Bought protein; also called mDLL3-his; mouse DLL3 protein; not shown: his tag
T4 sequence (looked up): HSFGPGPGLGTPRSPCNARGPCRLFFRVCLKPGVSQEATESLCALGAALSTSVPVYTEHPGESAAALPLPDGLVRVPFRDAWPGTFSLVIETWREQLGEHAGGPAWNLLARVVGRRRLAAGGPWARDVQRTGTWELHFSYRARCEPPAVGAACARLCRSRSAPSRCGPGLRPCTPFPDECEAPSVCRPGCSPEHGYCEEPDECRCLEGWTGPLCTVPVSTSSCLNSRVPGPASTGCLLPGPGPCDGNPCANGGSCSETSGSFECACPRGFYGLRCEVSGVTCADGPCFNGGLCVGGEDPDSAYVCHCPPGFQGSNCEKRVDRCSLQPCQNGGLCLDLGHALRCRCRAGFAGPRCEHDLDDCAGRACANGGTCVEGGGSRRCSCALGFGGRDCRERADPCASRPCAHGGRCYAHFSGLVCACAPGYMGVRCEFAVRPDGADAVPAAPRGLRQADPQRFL
B1: binds. B2: binds. B3: binds. B4: binds. B5: binds.

These binders were tested against T5, human full length DLL1 expressed on CHO-K1 cells (human, UniProt O00548 18-723) (assay: flow cytometry on CHO-K1-hDLL1 cells).
T5 construct: whole, on cells; also called CHO-K1-hDLL1
T5 sequence (looked up): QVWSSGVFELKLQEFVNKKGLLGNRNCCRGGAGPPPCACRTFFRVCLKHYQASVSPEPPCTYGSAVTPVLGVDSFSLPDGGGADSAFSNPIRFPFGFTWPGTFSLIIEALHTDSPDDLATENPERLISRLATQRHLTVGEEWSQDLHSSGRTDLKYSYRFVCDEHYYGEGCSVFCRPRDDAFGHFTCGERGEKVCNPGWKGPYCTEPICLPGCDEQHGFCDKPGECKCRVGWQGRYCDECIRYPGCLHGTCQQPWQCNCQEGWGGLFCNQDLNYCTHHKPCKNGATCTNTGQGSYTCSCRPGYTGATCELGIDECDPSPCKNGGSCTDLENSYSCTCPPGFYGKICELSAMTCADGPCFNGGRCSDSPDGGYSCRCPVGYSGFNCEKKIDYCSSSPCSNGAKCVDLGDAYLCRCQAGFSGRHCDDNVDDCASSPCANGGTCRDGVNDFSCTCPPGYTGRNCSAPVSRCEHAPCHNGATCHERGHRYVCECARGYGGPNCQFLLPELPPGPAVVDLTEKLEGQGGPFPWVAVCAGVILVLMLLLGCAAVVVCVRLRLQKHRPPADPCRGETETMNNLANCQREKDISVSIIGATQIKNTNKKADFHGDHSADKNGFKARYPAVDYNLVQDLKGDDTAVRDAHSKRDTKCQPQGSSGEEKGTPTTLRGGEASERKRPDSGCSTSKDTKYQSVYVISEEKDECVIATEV
B1: no binding (tested: highest dose level 100 nM). B2: no binding (tested: highest dose level 100 nM). B3: binds. B4: no binding (tested: highest dose level 100 nM). B5: no binding (tested: highest dose level 100 nM).

The binders below were run against T6, ECD of human DLL3 over-expressed on HEK293 cells (human, UniProt Q9NYJ7 27-492) (assay: flow cytometry on HEK293-hDLL3 cells).
T6 construct: extracellular domain; also called HEK293-hDLL3; human DLL3 expressed on HEK293 cells
T6 sequence (looked up): T2 sequence (looked up)
B1: binds. B2: binds. B3: binds. B4: binds. B5: binds.

These binders were tested against T7, human DLL3 endogenously expressed on SCLC tumor cell lines SHP77 and NCI-H82 (human, UniProt Q9NYJ7 27-618) (assay: flow cytometry on SHP77 and NCI-H82 cells).
T7 construct: whole, on cells; also called human DLL3 expressed on tumor cells
T7 sequence (looked up): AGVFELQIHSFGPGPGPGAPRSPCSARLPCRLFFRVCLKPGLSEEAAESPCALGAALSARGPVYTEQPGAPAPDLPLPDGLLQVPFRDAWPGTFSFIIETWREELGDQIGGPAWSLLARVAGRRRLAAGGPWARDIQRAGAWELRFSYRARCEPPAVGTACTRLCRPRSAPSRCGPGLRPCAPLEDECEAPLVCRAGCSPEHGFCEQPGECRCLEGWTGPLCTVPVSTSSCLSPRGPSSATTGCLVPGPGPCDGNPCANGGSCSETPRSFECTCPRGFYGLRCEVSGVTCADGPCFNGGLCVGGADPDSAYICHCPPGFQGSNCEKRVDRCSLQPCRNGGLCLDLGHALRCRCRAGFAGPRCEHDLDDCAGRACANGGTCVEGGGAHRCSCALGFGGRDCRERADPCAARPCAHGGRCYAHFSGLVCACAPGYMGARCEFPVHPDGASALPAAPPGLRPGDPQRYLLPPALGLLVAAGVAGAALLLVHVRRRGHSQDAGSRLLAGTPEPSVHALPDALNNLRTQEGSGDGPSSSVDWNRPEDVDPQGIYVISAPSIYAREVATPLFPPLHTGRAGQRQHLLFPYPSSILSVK
B1: binds. B2: binds. B3: binds. B4: binds. B5: binds.

The binders below were run against T2, ECD of human DLL3 protein fused with … (assay: SPR, Biacore 8K, antibody captured on Protein A chip, single dose of human DLL3-his).
B1: binds. B2: binds. B3: binds.
